Assay results from US20240400671A1 (LANIER BIOTHERAPEUTICS, published 2024).

T1: recombinant human IL-25 (R&D Systems) (human, UniProt Q9H293 33-177)
T1 sequence (looked up): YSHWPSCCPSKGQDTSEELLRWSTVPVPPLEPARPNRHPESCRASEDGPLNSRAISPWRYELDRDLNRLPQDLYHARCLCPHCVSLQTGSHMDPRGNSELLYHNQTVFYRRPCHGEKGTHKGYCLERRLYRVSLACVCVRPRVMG


Molecular target: T1, recombinant human IL-25 (R&D Systems)
Test: cell-based or functional assay

| IC50 | Binder |
| --- | --- |
| 0.18 µg/mL | ABM125 (Chimera) (antibody, V domains shown, N-glycosylation site in heavy chain CDR1 created by S29N, confirmed biophysically) VH: QVTLKVSGPGILQPSQTLSLTCSFSGFSLNTSGMGVGWIRQPSGKGLEWLAHIWWDDVKRYNPALKSRLTISKDTSGSQVFLKIASVDTADTATYYCARTLPHFFDYWGQGTTLTVSS VL: DIQMTQSPAIMSASPGEKVTISCRASSSVSYMYWYQQKSGSSPKPWIYRTSNLASGVPARFSGSGSGTSYSLTISSMEAEDAATYYCKQYHSYPPTWTFGGGTKLEIKR |
| 0.22 µg/mL | hABM125.34 (antibody, V domains shown) VH: QVTLKESGPTLVKPTQTLTLTCTFSGFSLSTSGMGVGWIRQPPGKALEWLAHIWWDDVKRYNPSLKSRLTITKDTSGSQVVLTMTNMDPVDTATYYCARTLPHFHDYWGQGTTLTVSS VL: DIQMTQSPSTLSASVGDRVTITCRASSSVSYMYWYQQKPGKAPKPLIYRTSNLASGVPSRFSGSGSGTEYTLTISSLQPDDFATYYCKQYHSYPPTWTFGGGTKLEIKR |
